Key:
[1] = molecular target: T1, mouse uPAR on cells (mouse, UniProt P35456 24-298); test: flow cytometry on EMT6 cells (express mouse uPAR), anti-His detection
T1 construct: whole, on cells; also called Ms-uPAR; mouse uPAR (CD87)
T1 sequence (looked up): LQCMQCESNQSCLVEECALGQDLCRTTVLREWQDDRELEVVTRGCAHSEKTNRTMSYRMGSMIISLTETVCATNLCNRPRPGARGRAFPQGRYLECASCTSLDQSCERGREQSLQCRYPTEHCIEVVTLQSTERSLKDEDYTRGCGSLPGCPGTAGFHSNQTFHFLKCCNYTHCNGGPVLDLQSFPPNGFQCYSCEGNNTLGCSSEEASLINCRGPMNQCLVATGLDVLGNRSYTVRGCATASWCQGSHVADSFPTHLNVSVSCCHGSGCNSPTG

[2] = molecular target: T2, IL-2/IL-15 receptor on HH cells (human); test: cell-based or functional assay
T2 chain 1: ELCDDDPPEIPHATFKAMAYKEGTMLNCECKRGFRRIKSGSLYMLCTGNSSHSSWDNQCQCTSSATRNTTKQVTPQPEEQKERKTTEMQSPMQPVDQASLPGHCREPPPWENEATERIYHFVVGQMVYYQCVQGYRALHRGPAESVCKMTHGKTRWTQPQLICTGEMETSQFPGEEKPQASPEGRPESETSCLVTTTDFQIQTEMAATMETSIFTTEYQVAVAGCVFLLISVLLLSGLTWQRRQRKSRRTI
T2 chain 2: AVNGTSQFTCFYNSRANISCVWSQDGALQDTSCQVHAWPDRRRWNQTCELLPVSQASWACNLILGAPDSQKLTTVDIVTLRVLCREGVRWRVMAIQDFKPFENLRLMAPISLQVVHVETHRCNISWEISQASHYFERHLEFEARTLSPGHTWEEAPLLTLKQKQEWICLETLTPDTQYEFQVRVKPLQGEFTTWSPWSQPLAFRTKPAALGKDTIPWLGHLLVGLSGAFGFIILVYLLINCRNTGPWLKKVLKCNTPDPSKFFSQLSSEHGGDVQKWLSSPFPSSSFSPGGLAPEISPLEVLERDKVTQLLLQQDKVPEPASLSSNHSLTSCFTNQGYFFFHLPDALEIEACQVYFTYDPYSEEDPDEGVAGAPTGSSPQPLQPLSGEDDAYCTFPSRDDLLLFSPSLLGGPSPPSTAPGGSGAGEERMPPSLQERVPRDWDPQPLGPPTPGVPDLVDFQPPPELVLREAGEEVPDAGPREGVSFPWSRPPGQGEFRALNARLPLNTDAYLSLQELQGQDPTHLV
T2 chain 3: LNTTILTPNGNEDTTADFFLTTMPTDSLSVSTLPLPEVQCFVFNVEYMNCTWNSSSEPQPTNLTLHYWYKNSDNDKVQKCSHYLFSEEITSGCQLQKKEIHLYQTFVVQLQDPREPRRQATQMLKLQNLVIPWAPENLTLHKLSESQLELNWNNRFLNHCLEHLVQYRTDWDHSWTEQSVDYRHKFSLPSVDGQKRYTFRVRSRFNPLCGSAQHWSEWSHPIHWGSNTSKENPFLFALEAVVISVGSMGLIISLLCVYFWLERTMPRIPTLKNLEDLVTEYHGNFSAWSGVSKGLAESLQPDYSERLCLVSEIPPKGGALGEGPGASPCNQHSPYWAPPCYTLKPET

[3] = molecular target: T1, mouse uPAR on cells; test: flow cytometry on CT26 cells (express mouse uPAR), anti-His detection
[4] = molecular target: T3, Recombinant mouse uPAR-Fc (R&D Systems, Cat. No. 531-PA-100) (mouse, UniProt P35456 24-297, limits assumed); test: SPR (Biacore), mouse uPAR-Fc captured on anti-human antibody chip
T3 construct: not shown: Fc of the bought fusion (captured with the human antibody capture kit); not described
T3 sequence (looked up): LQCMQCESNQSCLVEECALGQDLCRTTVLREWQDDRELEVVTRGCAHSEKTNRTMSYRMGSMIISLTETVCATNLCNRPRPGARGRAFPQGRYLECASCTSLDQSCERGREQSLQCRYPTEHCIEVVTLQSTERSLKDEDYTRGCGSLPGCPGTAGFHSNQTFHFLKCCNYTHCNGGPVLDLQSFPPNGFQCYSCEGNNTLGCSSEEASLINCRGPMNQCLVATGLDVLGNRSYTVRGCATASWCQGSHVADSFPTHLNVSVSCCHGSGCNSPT

[5] = molecular target: human 4-1BB on 4-1BB effector cells (human, UniProt Q07011 24-255); test: cell-based or functional assay
human 4-1BB on 4-1BB effector cells, sequence (Q07011 24-255): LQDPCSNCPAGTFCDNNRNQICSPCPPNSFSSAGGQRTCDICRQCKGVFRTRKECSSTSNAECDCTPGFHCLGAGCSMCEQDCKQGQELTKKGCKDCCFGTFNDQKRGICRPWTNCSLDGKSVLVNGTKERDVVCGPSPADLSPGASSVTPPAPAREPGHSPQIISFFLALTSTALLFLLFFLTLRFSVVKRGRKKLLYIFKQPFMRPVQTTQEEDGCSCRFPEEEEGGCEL

[6] = molecular target: T4, biotinylated human uPAR (human, UniProt Q03405 23-303, limits assumed, biotinylated (site not stated)); test: BLI (Octet) on biotinylated human uPAR; row 'None': no first antibody
[7] = molecular target: T1, mouse uPAR on cells; test: flow cytometry, HEK293 cells expressing mouse uPAR, 100 nM uPA present
[8] = molecular target: T5, histidine-tagged human uPAR (Sino#10925-H08H) (human, UniProt Q03405 23-303); test: BLI (Octet), antibody on anti-mouse Fc sensor, uPAR in solution
T5 construct: also called uPAR-His

[9] = molecular target: T4, biotinylated human uPAR; test: BLI (Octet) competition on biotinylated human uPAR; competitor (first antibody): M1
[10] = molecular target: T4, biotinylated human uPAR; test: BLI (Octet) competition on biotinylated human uPAR; competitor (first antibody): M5
[11] = molecular target: T4, biotinylated human uPAR; test: BLI (Octet) competition on biotinylated human uPAR; competitor (first antibody): ATN-368 (ATN-658)
[12] = molecular target: Human uPAR DII-DIII domain HisAvi Tag (human, biotinylated (site not stated)); test: BLI (Octet), biotinylated domain on SA sensor, antibody 200 nM
[13] = molecular target: T6, human uPAR expressed on HEK293 cells (human, UniProt Q03405 23-305); test: flow cytometry, HEK293 cells expressing human uPAR, 100 nM uPA present
T6 construct: whole, on cells; also called Hu-uPAR

[14] = molecular target: T5, histidine-tagged human uPAR …; test: BLI (Octet), uPAR on sensor, antibody in solution (avidity)
[15] = molecular target: Recombinant human uPAR his (R&D Systems, 807-UK-100/CF) (human, UniProt Q03405 23-303, biotinylated (sites not given)); test: SPR (Biacore), biotinylated human uPAR his on streptavidin chip
[16] = molecular target: T1, mouse uPAR on cells; test: flow cytometry on 4T1 cells (express mouse uPAR), anti-His detection
[17] = molecular target: T1, mouse uPAR on cells; test: flow cytometry on MC38 cells (express mouse uPAR), anti-His detection

B1: Human cpIL-2:IL-2Ra:Human uPA-ATF (N22Y, W30R)-His6 (other)
chain: SKNFHLRPRDLISNINVIVLELKGSETTFMCEYADETATIVEFLNRWITFSQSIISTLTGGSSSTKKTQLQLEHLLLDLQMILNGINNYKNPKLTRMLTFKFYMPKKATELKHLQCLEEELKPLEEVLNLAQGSGGGSELCDDDPPEIPHATFKAMAYKEGTMLNCECKRGFRRIKSGSLYMLCTGNSSHSSWDNQCQCTSSATRNTTKQVTPQPEEQKERKTTEMQSPMQPVDQASLPGHCREPPPWENEATERIYHFVVGQMVYYQCVQGYRALHRGPAESVCKMTHGKTRWTQPQLICTGGGSGGSNELHQVPSNCDCLNGGTCVSYKYFSNIHRCNCPKKFGGQHCEIDKSKTCYEGNGHFYRGKASTDTMGRPCLPWNSATVLQQTYHAHRSDALQLGLGKHNYCRNPDNRRRPWCYVQVGLKPLVQECMVHDCAHHHHHH
notes: also called 110
Which results are given for B1?
EC50 [1]: 0.54 nM; pSTAT5 EC50, HH cells [2]: 1.6 nM; EC50 [3]: 1.4 nM; Kd [4]: 0.12 nM; koff [4]: 0.00023 s⁻¹; kon [4]: 1.9e+06 M⁻¹ s⁻¹

B2: Linked human 4-1BBL Trimer: Human uPA-ATF (other)
chain: SNELHQVPSNCDCLNGGTCVSNKYFSNIHWCNCPKKFGGQHCEIDKSKTCYEGNGHFYRGKASTDTMGRPCLPWNSATVLQQTYHAHRSDALQLGLGKHNYCRNPDNRRRPWCYVQVGLKPLVQECMVHDCAGGSGGREGPELSPDDPAGLLDLRQGMFAQLVAQNVLLIDGPLSWYSDPGLAGVSLTGGLSYKEDTKELVVAKAGVYYVFFQLELRRVVAGEGSGSVSLALHLQPLRSAAGAAALALTVDLPPASSEARNSAFGFQGRLLHLSAGQRLGVHLHTEARARHAWQLTQGATVLGLFRVTPEIPAGLPSPRSEGSGREGPELSPDDPAGLLDLRQGMFAQLVAQNVLLIDGPLSWYSDPGLAGVSLTGGLSYKEDTKELVVAKAGVYYVFFQLELRRVVAGEGSGSVSLALHLQPLRSAAGAAALALTVDLPPASSEARNSAFGFQGRLLHLSAGQRLGVHLHTEARARHAWQLTQGATVLGLFRVTPEIPAGLPSPRSEGSGREGPELSPDDPAGLLDLRQGMFAQLVAQNVLLIDGPLSWYSDPGLAGVSLTGGLSYKEDTKELVVAKAGVYYVFFQLELRRVVAGEGSGSVSLALHLQPLRSAAGAAALALTVDLPPASSEARNSAFGFQGRLLHLSAGQRLGVHLHTEARARHAWQLTQGATVLGLFRVTPEIPAGLPSPRSE
What does the source list for B2?
EC50, luciferase 4-1BB Bioassay [5]: 0.1 nM; Emax (luciferase units), 4-1BB Bioassay [5]: 330000 luciferase units

B3: M5 (antibody, V domains shown)
VH: QVQLKESGPGLVAPSQSLSITCTVSGFSLTNYGVHWVRQPPGKDLEWLVVIWSDGGTTYNSALKSRLSISKDNSKSQVFLKMNSLQTDDTAMYYCARGGRSDLFAYWGQGTLVTVSA
VL: DVLMTQTPLSLPVSLGDQASISCRSSQSIVHSNGNTYLEWYLQKPGQSPKLLIYKVSNRFSGVPDRFSGSGSGTDFTLKISRVEAEDLGVYYCFQGSHVPYTFGGGTKLEIK
notes: Mouse hybridoma antibody; also called anti-uPAR antibody M5; parental M5
B3 was tested. Which “response in competition assay” value [6] did it give?
The value was 0.181.

And the EC50 [7]?
The EC50 was 93.8 nM.

And the Kd [8]?
The Kd was 33.1 nM.

What about the koff [8] of the same binder?
Its koff is 0.000962 s⁻¹.

What about the kon [8] of the same binder?
Its kon is 29100 M⁻¹ s⁻¹.

And the “response in competition assay” value [9]?
Its value is 0.161.

What about the “response in competition assay” value [10] of the same binder?
The value was -0.0173.

What about the “response in competition assay” value [11] of the same binder?
The value was 0.179.

Does B3 bind [12]?
Result: binds

And the EC50 [13]?
Its EC50 is 2.53 nM.

And the Kd [14]?
The Kd was under 0.001 nM.

And the koff [14]?
Its koff is under 1e-07 s⁻¹.

And the kon [14]?
Its kon is 28300 M⁻¹ s⁻¹.

B4: M8 (antibody, V domains shown)
VH: QIQLVQSGPELKKPGETVKISCKASGNTFTDYGMNWVKQSPGKGLKWMGWINTNTGEPTYADDFKGRFAFSLETSASTAYLQINNLKNEDMATYFCAHYSFDYWGQGTTLTVSS
VL: DIQMTQSPASLSVSVGQTVTITCRTSENIYSNLAWYQQKPGKSPQLLVYAATNLADGVPSRFSGSGSGTQYSLKINSLQSEDFGSYYCQHFWGTPWTFGGGTKLEIK
notes: Mouse hybridoma antibody; also called anti-uPAR antibody M8; parental M8
Which “response in competition assay” value [6] does the source give for B4 here?
The value was 0.284.

What about the EC50 [7] of the same binder?
Its EC50 is 31.4 nM.

What about the Kd [8] of the same binder?
Its Kd is 1.08 nM.

What about the koff [8] of the same binder?
Its koff is 0.00063 s⁻¹.

What about the kon [8] of the same binder?
The kon was 584000 M⁻¹ s⁻¹.

And the “response in competition assay” value [9]?
The value was 0.302.

What about the “response in competition assay” value [10] of the same binder?
The value was 0.321.

What about the “response in competition assay” value [11] of the same binder?
The value was 0.31.

Does B4 bind [12]?
Result: binds

And the EC50 [13]?
The EC50 was 0.54 nM.

And the Kd [14]?
Its Kd is under 0.001 nM.

What about the koff [14] of the same binder?
Its koff is under 1e-07 s⁻¹.

What about the kon [14] of the same binder?
The kon was 311000 M⁻¹ s⁻¹.

B5: Human uPA-ATF:His6 (ligand)
chain: SNELHQVPSNCDCLNGGTCVSNKYFSNIHWCNCPKKFGGQHCEIDKSKTCYEGNGHFYRGKASTDTMGRPCLPWNSATVLQQTYHAHRSDALQLGLGKHNYCRNPDNRRRPWCYVQVGLKPLVQECMVHDCAHHHHHH
notes: also called 103
For B5, which Kd [15] is on record?
Its Kd is 0.24 nM.

What about the koff [15] of the same binder?
Its koff is 0.00035 s⁻¹.

What about the kon [15] of the same binder?
The kon was 1.5e+06 M⁻¹ s⁻¹.

And the EC50 [16]?
The EC50 was 0.22 nM.

What about the EC50 [17] of the same binder?
The EC50 was 0.42 nM.

What about the EC50 [3] of the same binder?
The EC50 was 1.1 nM.

— US20220340678A1 (MURAL ONCOLOGY, published 2022)
